Experiment [1] concerns the target CD38 on cells of rat midbrain cultures (rat (cultures from Wistar rat embryos)) (UniProt Q64244). Description: cell-based or functional assay.
Experiment [2] addresses recombinant His-tagged CD38 (human) (UniProt P28907). The experiment is described as follows: Pepscan ELISA, LOOP7 array; His-tagged CD38 in solution, anti-His HRP. (In general: An ELISA detects its analyte on a solid surface through an enzyme-linked reagent.)

CD38 on cells of rat midbrain cultures (rat (cultures from Wistar rat embryos)), sequence (Q64244 whole entry): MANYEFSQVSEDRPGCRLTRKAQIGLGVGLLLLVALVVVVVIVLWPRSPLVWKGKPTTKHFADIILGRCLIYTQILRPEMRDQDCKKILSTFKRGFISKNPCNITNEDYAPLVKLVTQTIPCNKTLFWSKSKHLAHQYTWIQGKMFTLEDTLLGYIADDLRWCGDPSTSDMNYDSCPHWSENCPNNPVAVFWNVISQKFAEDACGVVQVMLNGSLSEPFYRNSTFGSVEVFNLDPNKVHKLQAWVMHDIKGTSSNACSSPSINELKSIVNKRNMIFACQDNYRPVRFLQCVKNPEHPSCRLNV

Substance “murine sCD31 (SEQ ID NO: 18) (from UniProt Q08481 18-585) (ligand)” showed an EC50, prevention of MPP^+-induced DA cell loss in rat midbrain cultures in experiment [1] of 36 ng/mL. With CD31 peptide CEYOVLVEC (LOOP7), the Value (Pepscan ELISA signal) in experiment [2] was determined as 651 mAU.

Source of the values: US20230357354A1, “CD38-BINDING CD31 PEPTIDES AND USES THEREOF” (ENCEFA, priority 2020, published 2023).
